Laboratory results from publication PMC8397897.

Molecular target: DENV capsid protein (DENVC) (Dengue virus 2 strain 16681, UniProt O09234 1-100)
Assay: nephelometry (condensate formation); NaCl < 150 mM; diminished above; nonlabeled 25 mer
Details: protein: recombinant; chain copies: 2

B1: ssDNASel25 (Sel25 DNA, 25 mer) (ssDNA)
DNA: GGACAGGAAUUAAUAGUAGCUGUCC
modifications: printed with U although named ssDNA; chemistry ambiguous
  binding result: binds
